This passage reports stoichiometry N results from publication PMC7889028.

The target of the test is head domain of PPRV ICV'89 strain H protein (residues 156-610) (peste des petits ruminants virus, strain Ivory Coast'89 (ICV'89)). The test is described as follows: SEC.

Regarding “head domain of PPRV ICV'89 strain H protein (residues 156-610) (domain or fragment)”, the stoichiometry N is 2.

In general, stoichiometry N refers to the number of molecules, sites or subunits per partner or assembly.
